Target: Cas9;AcrIIA5 (Streptococcus pyogenes;virulent phage …, UniProt Q99ZW2;A0A220GHA5 1-1368;1-140, |)
Assay: EMSA; 5 mM Mg2+; AcrIIA5 0.4-4 uM supershifts Cas9-sgRNA 0.2 uM; EMSA: 20 mM Tris-HCl pH 7.5, 150 mM KCl, 5 mM MgCl2, 1 mM DTT, 5% glycerol, 25 C, 40 min; sgRNA 200 nM, Cas9 400 nM; 6% PAGE, SYBR Gold
Conditions: protein: recombinant;recombinant; tags: N-terminal His6 (pET28); copies: 1;1; single strand, guide plus sgRNA scaffold hairpins

B1: Cas9 sgRNA (structured_RNA)
RNA: GGAAAUUAGGUGCGCUUGGCGUUUUAGAGCUAGAAAUAGCAAGUUAAAAUAAGGCUAGUCCGUUAUCAACUUGAAAAAGUGGCACCGAGUCGGUGCUU
Q: Does B1 bind?
A: binds

From PMC7367191, “Intrinsic disorder is essential for Cas9 inhibition of anti-CRISPR AcrIIA5”
